Test results published in US20250195614A1 (IMMUNITYBIO, published 2025).

What was measured:
[1] = biological target: IL2Rβ and common γ chain on 32Dβ cells; assay: cell-based or functional assay
TGF-β1 = TGF-β1 (UniProt P01137 279-390); assay: cell-based or functional assay
Sequence of TGF-β1 (P01137 279-390 limits assumed): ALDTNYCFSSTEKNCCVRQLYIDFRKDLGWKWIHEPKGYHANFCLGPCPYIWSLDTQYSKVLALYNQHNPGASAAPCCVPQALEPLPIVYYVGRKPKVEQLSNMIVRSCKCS

EC50 (printed as IC50), IL-15 activity on IL-15 dependent 32Dβ cells (WST-1, OD450) [1]	EC50, 32Dβ cell proliferation (WST1, absorbance 450 nM) [1]	IC50, TGF-β1 blocking activity in HEK-Blue TGF-β cells (OD620) (TGF-β1)	IC50, inhibition of TGFβ1 (0.1 nM) activity in HEK-Blue TGFβ cells (QUANTI-Blue OD 620-655 nM) (TGF-β1)	TGF-β1 blocking activity against that of TGFRt15-TGFRs or TGFRt15*-TGFRs (HEK-Blue TGF-β cells) (TGF-β1)	Molecule
81.8 pM	10.6 pM	–	–	–	recombinant IL-15 (from UniProt P40933 49-162) (ligand)
–	–	470 pM	461 pM	~10 fold	commercial TGF-β1 receptor II-Fc fusion (TGFRII/Fc, R&D Systems) (Fc fusion, UniProt P37173 24-159, looked up, not shown: a dimerising Fc or GST) IPPHVQKSVNNDMIVTDNNGAVKFPQLCKFCDVRFSTCDNQKSCMSNCSITSICEKPQEVCVAVWRKNDENITLETVCHDPKLPYHDFILEDAASPKCIMKEKKKPGETFFMCSCSSDECNDNIIFSEEYNTSNPD
